Reference: patent US20250129165A1 (IMCHECK THERAPEUTICS, published 2025)

Legend:
[1] = target: human BTN3A1 antigen (Sino Biological cat. no. 15973-H08H) (human, UniProt O00481 30-254); assay: SPR, Biacore T200 multi-cycle kinetics; antibody captured on Protein A, BTN3A1 as analyte
[2] = target: T1, cynomolgus BTN3A as expressed on cynomolgus PBMCs (cynomolgus); assay: flow cytometry on cynomolgus PBMCs
T1 construct: whole, on cells; also called Cyno PBMC

Chain of human BTN3A1 antigen (Sino Biological cat. no. 15973-H08H) (O00481 30-254 limits assumed): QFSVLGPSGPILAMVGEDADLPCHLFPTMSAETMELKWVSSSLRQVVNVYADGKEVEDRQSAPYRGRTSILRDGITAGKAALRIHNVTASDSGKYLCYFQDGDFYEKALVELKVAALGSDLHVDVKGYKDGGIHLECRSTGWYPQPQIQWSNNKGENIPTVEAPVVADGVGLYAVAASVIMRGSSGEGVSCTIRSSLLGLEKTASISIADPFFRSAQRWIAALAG

Kd [1]: 0.319 nM | EC50 [2]: 5.74 µg/mL
B1: mAb 3, humanized form of mAb 20.1 (antibody, human IgG1, kappa, V domains shown)
VH: QVQLVQSGAEVKKPGASVKVSCKASGYTFTRYYLYWVKQRPGQGLEWIGEINPNNGGTKFNEKFKSRATMTVDKSTRTTYMELSSLRSEDTAVYYCSREDDYDGTPDAMDYWGQGTLVTVSS
VL: DIQMTQSPSSLSASVGDRVTITCHASQNINLWLSWYQQKPGKAPKLLIYRASNLHTGVPSRFSGSGSATDFTFTISSLQPEDIATYYCQQGHSYPYTFGGGTKVDIKR
notes: also called 20.1 Humanized mAb 3; humanized mAb 20.1
